Values quoted from earlier work, collected in paper PMC6440808.
Read-outs that look alike come from different tables or passages of the source.

Key:
[1] = target: C4b (Homo sapiens) (UniProt P0C0L4)
[2] = target: C4b (Homo sapiens) (UniProt P0C0L4); remark: listed apart in the source

Chain of UniProt P0C0L4 (P0C0L4 20-1744, chain 1 of 2): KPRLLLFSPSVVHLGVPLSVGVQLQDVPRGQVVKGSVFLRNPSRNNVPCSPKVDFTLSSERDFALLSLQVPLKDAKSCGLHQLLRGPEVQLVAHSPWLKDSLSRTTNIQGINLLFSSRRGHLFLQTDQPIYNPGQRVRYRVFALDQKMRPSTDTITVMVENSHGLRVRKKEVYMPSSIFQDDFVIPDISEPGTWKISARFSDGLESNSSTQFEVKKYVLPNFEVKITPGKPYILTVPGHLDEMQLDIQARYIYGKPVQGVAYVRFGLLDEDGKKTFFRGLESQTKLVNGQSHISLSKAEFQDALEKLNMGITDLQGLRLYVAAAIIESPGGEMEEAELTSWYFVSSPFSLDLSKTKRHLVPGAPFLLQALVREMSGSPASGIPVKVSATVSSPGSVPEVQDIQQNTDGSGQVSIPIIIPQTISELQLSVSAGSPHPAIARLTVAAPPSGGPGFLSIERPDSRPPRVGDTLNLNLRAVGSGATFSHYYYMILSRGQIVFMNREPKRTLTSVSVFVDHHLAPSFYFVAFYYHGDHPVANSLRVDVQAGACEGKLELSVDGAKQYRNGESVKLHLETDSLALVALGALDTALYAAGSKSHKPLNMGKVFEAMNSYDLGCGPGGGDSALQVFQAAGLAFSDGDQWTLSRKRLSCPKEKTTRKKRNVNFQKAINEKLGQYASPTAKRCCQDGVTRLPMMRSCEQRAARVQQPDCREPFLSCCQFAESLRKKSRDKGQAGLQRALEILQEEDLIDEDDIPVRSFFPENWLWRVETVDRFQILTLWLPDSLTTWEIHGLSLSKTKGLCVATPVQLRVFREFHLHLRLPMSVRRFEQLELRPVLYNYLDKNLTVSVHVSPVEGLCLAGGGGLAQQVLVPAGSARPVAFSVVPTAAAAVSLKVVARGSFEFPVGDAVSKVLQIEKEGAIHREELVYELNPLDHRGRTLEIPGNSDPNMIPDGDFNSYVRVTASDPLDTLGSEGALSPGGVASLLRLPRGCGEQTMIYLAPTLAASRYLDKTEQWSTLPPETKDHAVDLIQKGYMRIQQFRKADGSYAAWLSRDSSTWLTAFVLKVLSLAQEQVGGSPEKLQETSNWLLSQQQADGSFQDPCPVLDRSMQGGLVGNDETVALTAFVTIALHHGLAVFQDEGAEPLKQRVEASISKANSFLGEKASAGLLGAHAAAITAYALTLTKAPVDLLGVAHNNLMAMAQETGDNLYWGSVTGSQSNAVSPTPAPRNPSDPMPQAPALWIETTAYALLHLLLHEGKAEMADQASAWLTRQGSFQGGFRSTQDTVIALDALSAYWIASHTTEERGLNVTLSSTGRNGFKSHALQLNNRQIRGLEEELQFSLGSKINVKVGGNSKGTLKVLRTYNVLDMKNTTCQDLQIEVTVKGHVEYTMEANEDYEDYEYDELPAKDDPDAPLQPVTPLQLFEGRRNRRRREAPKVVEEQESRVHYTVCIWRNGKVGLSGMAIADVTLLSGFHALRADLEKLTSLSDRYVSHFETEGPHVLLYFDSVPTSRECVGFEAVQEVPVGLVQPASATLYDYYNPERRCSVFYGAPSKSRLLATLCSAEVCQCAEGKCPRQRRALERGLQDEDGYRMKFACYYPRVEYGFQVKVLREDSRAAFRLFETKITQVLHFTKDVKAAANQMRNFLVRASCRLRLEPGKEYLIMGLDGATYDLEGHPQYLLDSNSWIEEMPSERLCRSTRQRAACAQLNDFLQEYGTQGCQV
Chain of UniProt P0C0L4 (P0C0L5 20-1744, chain 2 of 2, further chain): as the sequence (P0C0L4 20-1744, chain 1 of 2) above, with A888T, D1054G, P1101L, C1102S, L1105I, D1106H, N1157S, V1188A, L1191R, S1267A counted along it

| Substance | Kd [1] [µM] | Kd [2] [µM] |
| --- | --- | --- |
| Eap34 domains 3-4 (from UniProt Q99QS1) | 0.525 | – |
| Eap domain 3 or 4 (individual) domain 3 / domain 4 (from UniProt Q2FWW1) | – | 40 |
